Broadly, the Kd is the concentration at which binding is half-saturated.

One assay concerns the target T1, ADI-70327.
T1 construct: anti-CD3 antibody made in CHO cells, captured by anti-human Fc
Kind of assay: SPR Carterra, yeast anti-ID. In a few lines:
(§1)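 Goat anti-human Fc was amine-coupled to an HC30M sensor chip, then anti-CD3 antibodies at 100 nM were flowed over discrete spots for 5 min. Anti-idiotype antibodies were run in non-regenerative kinetic cycles at 25° C in HBSTE, with 300s dissociation. Blank-subtracted sensorgrams were fitted 1:1.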

A further assay concerns the target T2, CTL-62240.
T2 construct: also called ONO-4685
Put plainly: SPR Carterra, yeast anti-ID. In a few lines:
as §1

For the next assay, the target named is T3, CTL-62227.
T3 construct: also called odronextamab
Kind of assay: SPR Carterra, yeast anti-ID. In a few lines: as §1

A further assay concerns the target T4, ADI-67445.
T4 construct: anti-CD3 antibody made in CHO cells, captured by anti-human Fc
Put plainly: SPR Carterra, yeast anti-ID. A digest of the protocol: as §1

A further assay addresses T5, CTL-62228.
T5 construct: also called glofitamab
Put plainly: SPR Carterra, yeast anti-ID. In a few lines: as §1

A further assay concerns the target T6, ADI-26921 anti-CD3 bsIgG.
T6 construct: anti-HER2 IgG with one Fab arm replaced by the anti-CD3 scFv (printed 'Vx-VH', read as VL-VH); S354C and Y349C mutations; also called anti-CD3 bsIgG (ADI-26921 scFv); not shown: scFv linker; anti-HER2 Fab arm (heavy and light chain); hinge and Fc with S354C/Y349C
Kind of assay: BLI; tip anti-CD3 bsIgG, solution ADI-34134 IgG. The procedure:
(§2) ForteBio affinity measurements were performed generally as previously described (Estep et al., MAbs. 2013 5(2):270-8). Briefly, ForteBio affinity measurements were performed by loading antibody IgG or Fabs on-line onto AHC sensors. Sensors were equilibrated off-line in assay buffer for 30 minutes and then monitored on-line for 60 seconds for baseline establishment. For avid binding measurement, sensors with loaded antibodies were exposed to IgG or Fab solutions for 3 minutes, afterwards they were transferred to assay buffer for 3 minutes for off-rate measurement. Kinetics data were fit using a 1:1 binding model in the data analysis software provided by ForteBio to obtain equilibrium dissociation constant (KD=koff/kₒₙ) values. In each column, tip-immobilized antibodies are listed first and solution antibodies second.
(§3) Additional analysis was conducted using bispecific antibody formats incorporating anti-CD3 antibody variable domains. Bispecific antibodies were prepared using standard IgG formats (bsIgG) with replacement of Fab arms with anti-CD3 scFvs in Vx-VH orientation and with S354C and Y349C mutations for disulfide stabilization. Antibodies used for Fab arm replacement were anti-HER2 IgG antibodies, with one Fab arm from each replaced by a scFv corresponding to a different anti-CD3 antibody. […] In each column, tip-immobilized antibodies are listed first and solution antibodies second. Anti-CD3 antibodies associated with incorporated scFvs are listed by antibody number.
Background: BLI is a label-free optical method that tracks binding on a fibre tip over time.

A further assay deals with T7, ADI-26916 anti-CD3 bsIgG.
T7 construct: anti-HER2 IgG with one Fab arm replaced by the anti-CD3 scFv (printed 'Vx-VH', read as VL-VH); S354C and Y349C mutations; also called anti-CD3 bsIgG (ADI-26916 scFv); not shown: scFv linker; anti-HER2 Fab arm (heavy and light chain); hinge and Fc with S354C/Y349C; copies: 1 + 1
Kind of assay: BLI; tip anti-CD3 bsIgG, solution ADI-34134 IgG. On the procedure: as §2, §3

For another assay, the target named is T8, ADI-26920 anti-CD3 bsIgG.
T8 construct: anti-HER2 IgG with one Fab arm replaced by the anti-CD3 scFv (printed 'Vx-VH', read as VL-VH); S354C and Y349C mutations; also called anti-CD3 bsIgG (ADI-26920 scFv); not shown: scFv linker; anti-HER2 Fab arm (heavy and light chain); hinge and Fc with S354C/Y349C
Kind of assay: BLI; tip anti-CD3 bsIgG, solution ADI-34134 IgG. On the procedure:
as §2, §3

A further assay concerns the target T9, ADI-26913 anti-CD3 bsIgG.
T9 construct: anti-HER2 IgG with one Fab arm replaced by the anti-CD3 scFv (printed 'Vx-VH', read as VL-VH); S354C and Y349C mutations; also called anti-CD3 bsIgG (ADI-26913 scFv); not shown: scFv linker; anti-HER2 Fab arm (heavy and light chain); hinge and Fc with S354C/Y349C
Kind of assay: BLI; tip anti-CD3 bsIgG, solution ADI-34134 IgG. The procedure:
as §2, §3

For a further assay, the target named is T10, ADI-26927 Fab.
T10 construct: anti-CD3 Fab by papain digestion of the IgG
Put plainly: BLI; tip ADI-34134 IgG, solution anti-CD3 Fab. On the procedure:
as §2
(§4) In each column, tip-immobilized antibodies are listed first and solution antibodies second.

In the next assay the target is T11, ADI-26916 Fab.
T11 construct: anti-CD3 Fab by papain digestion of the IgG
Kind of assay: BLI; tip ADI-34134 IgG, solution anti-CD3 Fab. The procedure: as §2, §4

The target in the next assay is T12, ADI-26921 Fab.
T12 construct: anti-CD3 Fab by papain digestion of the IgG
Put plainly: BLI; tip ADI-34134 IgG, solution anti-CD3 Fab. On the procedure:
as §2, §4

The target in the next assay is T13, ADI-26906 Fab.
T13 construct: anti-CD3 Fab by papain digestion of the IgG
Kind of assay: BLI; tip ADI-34134 IgG, solution anti-CD3 Fab. On the procedure: as §2, §4

For another assay, the target named is T14, ADI-26913 Fab.
T14 construct: anti-CD3 Fab by papain digestion of the IgG
Put plainly: BLI; tip ADI-34134 IgG, solution anti-CD3 Fab. The procedure: as §2, §4

A further assay concerns the target T15, ADI-22523 Fab.
T15 construct: anti-CD3 Fab by papain digestion of the IgG
Kind of assay: BLI; tip ADI-34134 IgG, solution anti-CD3 Fab. The procedure: as §2, §4

The target of the next assay is T16, ADI-26954 Fab.
T16 construct: anti-CD3 Fab by papain digestion of the IgG
Put plainly: BLI; tip ADI-34134 IgG, solution anti-CD3 Fab. On the procedure: as §2, §4

The target in the next assay is T17, ADI-26941 Fab.
T17 construct: anti-CD3 Fab by papain digestion of the IgG
Put plainly: BLI; tip ADI-34134 IgG, solution anti-CD3 Fab. The procedure: as §2, §4

The next assay deals with T18, ADI-26928 Fab.
T18 construct: anti-CD3 Fab by papain digestion of the IgG
Put plainly: BLI; tip ADI-34134 IgG, solution anti-CD3 Fab. On the procedure:
as §2, §4

T1 sequence (VH, as listed by the source limits assumed, chain 1 of 2): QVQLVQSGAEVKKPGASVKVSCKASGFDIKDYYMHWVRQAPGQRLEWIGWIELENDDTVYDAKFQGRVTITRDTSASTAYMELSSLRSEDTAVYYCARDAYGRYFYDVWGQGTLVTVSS
T1 sequence (VL, as listed by the source limits assumed, chain 2 of 2): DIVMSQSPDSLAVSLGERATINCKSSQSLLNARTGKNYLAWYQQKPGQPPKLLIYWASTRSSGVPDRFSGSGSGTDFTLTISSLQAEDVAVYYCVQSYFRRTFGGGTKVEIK
T2 sequence (VH, as listed by the source, chain 1 of 2): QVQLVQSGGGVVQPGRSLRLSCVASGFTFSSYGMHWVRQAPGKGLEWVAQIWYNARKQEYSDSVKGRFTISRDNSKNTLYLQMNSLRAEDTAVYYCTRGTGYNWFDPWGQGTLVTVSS
T2 sequence (VL, as listed by the source, chain 2 of 2): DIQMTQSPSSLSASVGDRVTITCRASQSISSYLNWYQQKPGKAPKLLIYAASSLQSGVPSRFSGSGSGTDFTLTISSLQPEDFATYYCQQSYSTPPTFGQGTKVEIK
T14 sequence (VH, as listed by the source limits assumed, chain 1 of 2): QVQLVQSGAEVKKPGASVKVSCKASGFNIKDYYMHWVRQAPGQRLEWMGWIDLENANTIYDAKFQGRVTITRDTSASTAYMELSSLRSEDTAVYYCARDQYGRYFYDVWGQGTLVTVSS
T14 sequence (VL, as listed by the source limits assumed, chain 2 of 2): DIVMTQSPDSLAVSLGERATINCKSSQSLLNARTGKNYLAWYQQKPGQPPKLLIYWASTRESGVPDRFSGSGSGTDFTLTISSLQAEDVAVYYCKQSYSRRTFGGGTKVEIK
T16 sequence (VH, as listed by the source limits assumed, chain 1 of 2): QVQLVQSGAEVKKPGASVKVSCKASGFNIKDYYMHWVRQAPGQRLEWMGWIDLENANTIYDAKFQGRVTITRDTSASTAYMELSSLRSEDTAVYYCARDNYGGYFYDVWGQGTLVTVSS
T16 sequence (VL, as listed by the source limits assumed, chain 2 of 2): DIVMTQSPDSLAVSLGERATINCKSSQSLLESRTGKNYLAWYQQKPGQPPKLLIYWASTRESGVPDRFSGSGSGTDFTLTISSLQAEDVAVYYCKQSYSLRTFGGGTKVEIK
T17 sequence (VH, as listed by the source limits assumed, chain 1 of 2): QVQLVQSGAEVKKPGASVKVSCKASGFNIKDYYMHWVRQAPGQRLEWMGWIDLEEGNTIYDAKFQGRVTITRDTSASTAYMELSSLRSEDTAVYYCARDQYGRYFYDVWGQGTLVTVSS
T17 sequence (VL, as listed by the source limits assumed, chain 2 of 2): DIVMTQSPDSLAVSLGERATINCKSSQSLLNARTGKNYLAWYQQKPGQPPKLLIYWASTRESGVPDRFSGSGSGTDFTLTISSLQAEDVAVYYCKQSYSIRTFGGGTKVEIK
T4 sequence (VH, as listed by the source limits assumed, chain 1 of 2): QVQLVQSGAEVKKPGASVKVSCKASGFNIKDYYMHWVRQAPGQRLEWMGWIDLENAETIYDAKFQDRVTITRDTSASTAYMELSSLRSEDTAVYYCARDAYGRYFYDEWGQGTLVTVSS
T11 sequence (VH, as listed by the source, chain 1 of 2): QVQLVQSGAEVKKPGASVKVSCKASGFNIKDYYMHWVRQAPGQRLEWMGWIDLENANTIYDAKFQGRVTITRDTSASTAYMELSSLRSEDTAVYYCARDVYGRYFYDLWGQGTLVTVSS
T15 sequence (VH, as listed by the source limits assumed, chain 1 of 2): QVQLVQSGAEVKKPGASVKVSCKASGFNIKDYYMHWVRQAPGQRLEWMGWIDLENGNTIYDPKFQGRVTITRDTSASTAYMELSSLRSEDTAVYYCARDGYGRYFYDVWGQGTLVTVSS
T15 sequence (VL, as listed by the source limits assumed, chain 2 of 2): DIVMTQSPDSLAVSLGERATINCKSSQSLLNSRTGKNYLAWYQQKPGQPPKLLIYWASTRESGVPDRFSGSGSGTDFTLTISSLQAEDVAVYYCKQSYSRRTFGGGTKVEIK
T8 sequence (VH, as listed by the source limits assumed, chain 1 of 2): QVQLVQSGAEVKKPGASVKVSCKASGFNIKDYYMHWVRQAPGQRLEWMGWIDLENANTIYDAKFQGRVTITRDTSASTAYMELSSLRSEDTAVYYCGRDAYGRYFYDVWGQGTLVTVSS
T8 sequence (VL, as listed by the source limits assumed, chain 2 of 2): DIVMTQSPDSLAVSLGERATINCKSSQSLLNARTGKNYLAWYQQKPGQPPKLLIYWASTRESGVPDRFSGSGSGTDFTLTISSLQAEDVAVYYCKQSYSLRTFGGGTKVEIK
T6 sequence (VH, as listed by the source limits assumed, chain 1 of 2): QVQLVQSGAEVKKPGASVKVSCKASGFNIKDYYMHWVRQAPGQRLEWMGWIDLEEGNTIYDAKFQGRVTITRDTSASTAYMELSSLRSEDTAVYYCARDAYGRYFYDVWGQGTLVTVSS
T13 sequence (VH, as listed by the source limits assumed, chain 1 of 2): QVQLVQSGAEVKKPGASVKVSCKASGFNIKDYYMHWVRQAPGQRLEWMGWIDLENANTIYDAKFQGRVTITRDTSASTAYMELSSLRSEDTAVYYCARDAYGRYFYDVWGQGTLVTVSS
T3 sequence (VH, as listed by the source, chain 1 of 2): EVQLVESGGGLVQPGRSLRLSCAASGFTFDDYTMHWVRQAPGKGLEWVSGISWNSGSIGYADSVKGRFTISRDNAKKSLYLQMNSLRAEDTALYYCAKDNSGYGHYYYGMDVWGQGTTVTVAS
T3 sequence (VL, as listed by the source, chain 2 of 2): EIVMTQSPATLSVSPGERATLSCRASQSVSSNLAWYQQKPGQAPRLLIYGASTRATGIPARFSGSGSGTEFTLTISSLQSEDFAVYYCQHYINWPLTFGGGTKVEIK
T18 sequence (VH, as listed by the source limits assumed, chain 1 of 2): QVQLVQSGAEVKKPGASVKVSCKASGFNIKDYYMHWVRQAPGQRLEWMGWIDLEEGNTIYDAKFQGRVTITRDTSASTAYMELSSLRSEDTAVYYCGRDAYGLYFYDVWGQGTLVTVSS
T10 sequence (VH, as listed by the source limits assumed, chain 1 of 2): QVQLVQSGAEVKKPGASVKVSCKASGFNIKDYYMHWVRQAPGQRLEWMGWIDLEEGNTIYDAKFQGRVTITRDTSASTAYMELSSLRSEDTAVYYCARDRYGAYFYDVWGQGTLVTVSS

B1: ADI-34145 IgG (antibody, V domains shown)
VH: EVQLLESGGGLVQPGGSLRLSCAASGFTFSSYAMSWVRQAPGKGLEWVSTISGSGGSTYYADSVKGRFTISRDNSKNTLYLQMNSLRAEDTAVYYCARLGGRRGSGSSYYYYYGMDVWGQGTTVTVSS
VL: not shown
notes: anti-ID IgG
Turning to B1, the binding result in the assay with ADI-70327, with CTL-62240, in the assay with CTL-62227, in the assay with ADI-67445 and with CTL-62228 was “no binding (tested: up to 200 nM)” in each case.

B2: ADI-34134 IgG (antibody, V domains shown)
VH: QVQLVQSGAEVKKPGSSVKVSCKASGGTFSSYAISWVRQAPGQGLEWMGGIIPIFGTANYAQKFQGRVTITADESTSTAYMELSSLRSEDTAVYYCARGAPNYYGSGGYDDGWFDPWGQGTLVTVSS
VL: EIVLTQSPGTLSLSPGERATLSCRASQSVSSDYLAWYQQKPGQAPRLLIYGASSRATGIPDRFSGSGSGTDFTLTISRLEPEDFAVYYCQQFGRVPTFGGGTKVEIK
As for B2, the Kd stood at 0.94 nM with ADI-26921 anti-CD3 bsIgG; 1.94 nM in the assay with ADI-26916 anti-CD3 bsIgG; 0.47 nM with ADI-26920 anti-CD3 bsIgG; 0.98 nM in the assay with ADI-26913 anti-CD3 bsIgG; 38.2 nM with ADI-26927 Fab; 56.5 nM with ADI-26916 Fab. Also, the Kd with ADI-26921 Fab worked out at 185 nM; with ADI-26906 Fab it was 17.8 nM; with ADI-26913 Fab, 79.8 nM; with ADI-22523 Fab, 5.62 nM; with ADI-26954 Fab, 157 nM; in the assay with ADI-26941 Fab, 138 nM. For the same molecule, in the assay with ADI-26928 Fab, binding was characterised by a dissociation constant (Kd) of 31 nM.

The values above are taken from patent US20250019439A1 (Adimab, published 2025).
